Test results: patent US10100341B2, “Tailored oils produced from recombinant oleaginous microorganisms” (Corbion Biotech, Inc., priority 2011, dated 2018)

Test system: Prototheca moriformis (UTEX 1435)
Experiment: cDNA abundance by real-time RT-PCR under nitrogen depletion
Type: cell-based
Conditions: after 24 hours of culture in low nitrogen medium
Protocol: A cDNA library was generated from Prototheca moriformis (UTEX 1435) using standard techniques. The Prototheca moriformis cells were grown for 48 hours under nitrogen replete conditions. […] After about 24 hours in culture, the nitrogen supply in the media was completely depleted. The collected samples were immediately frozen using dry ice and isopropanol. Total RNA was subsequently isolated from the frozen cell pellet samples and a portion from each sample was held in reserve for RT-PCR studies. The rest of the total RNA harvested from the samples was subjected to polyA selection. Equimolar amounts of polyA selected RNA from each condition was then pooled and used to generate a cDNA library in vector pcDNA 3.0 (Invitrogen). Roughly 1200 clones were randomly picked from the resulting pooled cDNA library and subjected to sequencing on both strands. Approximately 68 different cDNAs were selected from among these 1200 sequences and used to design cDNA-specific primers for use in real-time RT-PCR studies. RNA isolated from the cell pellet samples that were held in reserve was used as substrate in the real time RT-PCR studies using the cDNA-specific primer sets generated above. This reserved RNA was converted into cDNA and used as substrate for RT-PCR for each of the 68 gene specific primer sets. […] As discussed in the specification, nitrogen depletion/limitation is a known inducer of lipogenesis in oleaginous microorganisms. Fold increase refers to the fold increase in cDNA abundance after 24 hours of culture in low nitrogen medium.

| Molecule | Fold increased (cDNA abundance) |
| --- | --- |
| NRAMP metal transporter promoter/5′UTR: putative nitrogen-regulated promoter/5′UTR, SEQ ID NO: 56 (nucleic acid, listed as Prototheca moriformis) DNA: ACTAATTGCAATCGTGCAGTAATCATCGATATGGTCACAAGTAGATCCCCTACTGACACCCTCTCGTACATGTAGGCAATGTCATCGGCGCCGTCCTGCTGACCGATGCCGACGTAGCAGAGCAGACCCGGGCCGATCTGGGATACGAGCCGGCCCTCCACCTGCGCTCGAGGTGGAATCAAGTAAATAACCAATACACTTTTCGACACCACACAGAGTTGCACGGACGGTGGCGTACCTCTACGCTCGCGCTCTTCACGCGCTGGACGACCGCACGCATGAGCCCGGGTGGCTTGGTCTGGGCTGCAAAAATGCACAACAAACAAGTATCAGACGCTCATGGATGCACACGCGCTCCCAAGCACGCTCAGACTAAATATTACAGTAGCTCGTATCTGATAAGATATCGAGACATACCGCTCAACTCACCCGCAAACTGCGCCCCGCCAGGTGATGCGCACAGGGCCCCACCATGCGATCCATCGCATCGCTCCTCGAGGGCGCTATCACGTGGCCGGAGAGCGTTCACAGCGTACGCCACTGTATCTGGGCGGTATGCGGTCCGTCAACATGGAGACAGATACCCGCACCACCACCTTGCAAGCTCTTCCATATTGGAAGTAGAAAATTGTAATTGTATCATCGCACGAGGGGCCAACTTGCCGTCGGCGAGCTGGGCGACGAACACCACCTGGACGTTGTCGAGACTCGCTCGTGCCGTGCGCCGGGCCGCTGGGTATCCAGACCGTCGCC | 9.65 |
| SulfRed Sulfite reductase promoter/5′UTR: putative nitrogen-regulated promoter/5′UTR, SEQ ID NO: 58 (nucleic acid, listed as Prototheca moriformis) DNA: GGCCCAGGGCCCTGCGGATGGCCCACACCAGATCTAGCCTCTCTTATGCCATGCCCGCCTCGCTGCCCGTCGTATCCCCCCGCCGATCCGCGCGTAGGGGACCGCGGCCTGACCCACGCCACGAAAGAGCTTTGCTCCTCAATTTCTCGCCAACAGAACCGTATCAAACGCTCAACGCCTATCCCGAACAATCCGTATTCACACCAAATCGAGTATACCGGACTGGTTTGCCTAGTCTTGAAGGAAATGATCCCGTCCATGCTCGGAAGGGGGAGCGGGCGGAGGATCCTACTCATCTCTGAAATGGGATTGGTCCGAAGATGGGTTGGGCAAGCACGTGCCAAACCCCAGCGAGTTGCTGACGAGCAGGCTCATCCAATCCCCCGGCGAATCCTCCCTCACGCCCCGCATGCATACAAGTCCCTCCCACACGCCCCCTCCCATCCATTTTCGCCTGGTCCGAACGCGAGCGGCGTCGAGGCGGACCACTTGCTCCGCAGCGCCGTCTGGGTCTCCACCCCACAGCGGCTTTGCTGCCAGAGGCACCCCCCTTGCCCCACCTCCTCTTGCAGCC | 10.91 |
| Aat05-Amino acid transporter 05 promoter/5′UTR: putative nitrogen-regulated promoter/5′UTR, SEQ ID NO: 66 (nucleic acid, listed as Prototheca moriformis) DNA: CCGAGCAGTTCATGGCCAAGTACAAGGACTAGAGACCGGAGGTCGGTAGGCTGAATGGAGCTGGCGTCGTCGTGCGCGACGTGCACGCGATGCGATACTACGACCCCACAAACGCATGCCTCCCATCTTGATGCCTTTCCGGCCATTTATACTATTTCTCATTTCGCTGTAACATCTTGAATAATAGAATTGCCCTGTGTCAAGTGGATTCCAAGAAATATTCTGTCCCAACAAAACAACCCAACCTGAAAACAACCTCAAATACCACCAGCCCTGCCCACCTGCCCAGTACACTTTTCCAATACCATCTCCCTACCTTCACGCGCAAGCGGCACCCATGCGCGACCAGGCTCGAAAGGATTTCACGACTCAGGACGAGCGAGTGGCGGCGCGACCGCCTGCCTGTTCGTCACGTGCCGTACGTCGGCGACCGCTAGAGCTTTGCCTGGCAACCCCCGGCTTCGTCAACCCGGCCAGCCAGGATCTCGACCACTCTACCGCGAAATCGCCTCAAGAAGTCGCCAAAAGTGCCGTACACCATGCTTCGCAGCGCTGTTCAAACTTGATGCCAATCTTGACAATCAGGTTGCTCGTTGGCTGCGTCCACATCGGCCGTGATTGCAGCAGGCGGGGATCGGACACGGAGGACGCGGCGTCACGCCGCGAACGCAGCCCGTAACTCTACATCAACGCGATATGTTGCGTAATCCCGCCCGGCTGCGCATTGTGACAACCCATTCGCGATGGATGGTCGGAAAATGGTGTGCCAACTGCCCTGAGGGACTCTCTCGCGAAACGGGCACGTCCCTGTATCCGAAACTGTGGCATGGCCTTGTCGACCACGCAAGCACGTGGACCCTAACACCACGAAAATAAGTAAAAAAGGTTGACATCCTCTACGAGCGAATTGTTTGCTCGACCCTTCATCGCACACTGTCATTATAATGCATCTAGCTCGGCGACAAGTTTAAAAAAGGCAGGCTGCATTATTCCATTTTGCCGTGGCGGCATGGGTGCCCATTTTATGAGGTTTGGGCTCTTGGGCAGCGACCGAGCCAGGTTGAGTCCCTCTCGCCCGTCGACAACGTTCCAAAGCCCATAAGTGGCTAATAAACAACTTGATGGTACCTGTACACTGCCAGTTCCTTCTTCCCCGGCCGAGGTTTACACGTGATGGCCATGGCTTCGCGTTTCAGGCTGACTTCCCATTCCGACTTTCCAGAGGGTCCGCGGACGCCGGGGGTTGGCTGCGTGAGGCCCACCCCTTGTTCCCCGCGTCCCGACAAACACAATTGCGTTACATAAGGGGGAAGCCGCCCCCCGTTCAGAGTGCAAACATCTTTCATTATATTTTTCAGTCGTCAGCGAAATCAAGTATGTCGCTGACAGGCATGAAGGCC | 6.71 |
| Aat03-Amino acid transporter 03 promoter/5′UTR: putative nitrogen-regulated promoter/5′UTR, SEQ ID NO: 64 (nucleic acid, listed as Prototheca moriformis) DNA: GATGGTGGGGTGTCTGCCTTGGGCTGGGTGATGGAGGCTGGTGGTGCGCGGGTTTCCTGATGCATTCTATCTACGCAGTGTCATGGTGTCCATTCCACACACCAGTACACCCTTACACTAAGGATCCATCCCTCCTTCCCTCTTCAGGACTACATGGACCCCACGAGCTACCGACCGGGCTTTCTCAAAAACGTCAAGGTCATGTTTGACATGCGGGACGTGGTGGACGACGTGCAAGGTGCGTCCGGAGTGCGCGCAAATGAGCAAGTCGGGCAATGTGTCGGGGTGGGCACCGGGGCTGGAGATCCGCGATCCCCGAGAAAACGCCGTACCACCCCCCGCGCTATTCCCTCGATTGCGCGCAGATGTGGTGACCGACACGGGGGACAACCTGGCGGACATGGGGCGCCGGACCTGGAAGCACGCCAAGTCGCACACGGGGAGGCTCGTGCAGTCCCCCCCATCGTACCTCAAGGGTCTCTTTGGTCGCGATCCAAAGTACGCTGGTGGCATGGCATGCCCGAAATGAACATCATGTGTGATCTCCGATTGCCAATGGCCACCTCCACGGACCACCTTGCAGGCGGAAGCGCAATCCAGGGCCCGAGCCTGACGAGGACGGAGACTCCTCGTCCAGCGCGGGGTCCCCGACCCGACGCAGCAGCCGACCCCTGCTAACCCGGCAACGATCGGACCAGCAACCTTGCTGTAGTTCCGATCCGTGATGACGGGCATTGCCGCCGCTCGATCCGCTTTGATGACTGTCTATTATTTGCGCGGAGCCCCCTCGGAACCCTACCCCGCTCTTGCAAGCCCCTTGCATCGGAGATCCTCGTGCGCCCGCCATGACCCCACTGGATTGCCCAACATCCTTCTTTATCGTGTAAAATGTGATTCCTCGGCTGCAATCGACTGGCCTTCGCTTCTGGCCCCAAGAGGGCTCGAACGTGCGGCAGCGAGGGCGCTGACACACCCAAGCCCTAGGGCTTTCAACGTCGGCTGCCAGGCCGGATAGGGGGATCGCCTCCTTTCCACCACCCACCTACGAGGGATTCGAGTCGGCTTCCAGCTCAGCTATTCGGCCGCGCCCCCGGCCCTGCAGACGTCCTCCAGTTTCCGAACAGGTCGCTCTCAGAACACCTGCCGCGGCTGCGATACGGCAGGCTCTCAAAGCGTCGAC | 7.87 |
| Flap Flagellar-associated protein promoter/5′UTR: putative nitrogen-regulated promoter/5′UTR, SEQ ID NO: 57 (nucleic acid, listed as Prototheca moriformis) DNA: CAACGACAACCAGCAGGCAACTCGGTCAGCGACCCAACACGCGAGTCAAATTGTTGCGTGTTCTTGCCTTGTCTATTTACTGTGATAGCAAGACTGTCGGTCAGTCAATACCGCGGTGCGCACGTCGGGGTGCCAAGCCTAGCAGAGCACGGGACGGCTGGTGCTGTGCGCCAGCTCAGCTCGCTTCGCGACCAATTGTAGGACCGGCAAAGTCACCAAAACATGCCAGCGGTGCGATTCAATTGGTCATGAGCTCTACAAAATTGTTTTGTGCGTCGCGCAGGTATCCAACGGCGCGGCAGAGAAAGTTTGACAGCTCTCGATTTCATCTCGGAAAAATGGGGAGAATTTATGACACACAAGTGCGCAGGCGGCCCAGGCGGCCAGCATATTCTGGCGTGACCTGGGCCGCCCACAAAATGCTTGGATGCACTCTAAAATAATTATATTTGCCATGAACAAGGGAAGAGTTACCGCACCCAGCCCTAGACTTGGGCGCCCGAGCAAGGTTACGTCAAGCCACCTTCGCCCATCGCCCAACTCCGTATTCCCCGACAGCCGCACGTGGCCCTCGCCGGAATGAACCCTGAATCGGCATCACGCCACGCGTTCGCCAATCGTTCCGCTCTCTGGCTTCATCGGCCTGCGCCTTCACGTCGTGGTCACGACAGTGCATTCATACTTCCATTTGCACCTCGGCACACACTTTTACGCATCGCCTACCCTTGCTGCGGCAGTCTAGGGTCACTTTGCAGCCATGGGACAGTGCTACACCACCGTCGGTGCGCAAAGCTATTTCAAGTGAACCGTGGGCGGAAAAAAGGAATGTACACTGTCTCAACCGACTCCTACAATTGTTTACCATGCAGATCAGAGCTCGACGGCCATCATCGAGCAGGTGTGGGGCCTTGGTGGCGCGGCGCGGGGCCCCAGGGCGTCGCAGGCATTGATGGCACTCTGAGACTTTCGCACGCGCATGAGGGACCCCATCAAGAGAAGAGTGTGTCTTTATGTCCCCATTCATGATGATGTATCTTGTGATTGTCGCAGTTTGGCAAGTTTAACCGGATCGCCGCTCCAGGTGTGGCGTGGCGGATTTTTCTAGGGGTGCTTGAGCAGTCG | 4.92 |
